From the supplement of paper PMC10724198
± gives the standard deviation of the averaged measurements.

test system: Saccharomyces cerevisiae; assay: protein stability index of tFT-peptide fusion (C-terminal peptide) (PSI (0-1 scale)); higher = more stable (slower turnover); settings: genetic background: wild type; temperature: 30 C
Description: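 Multiplexed protein stability (MPS) profiling in S. cerevisiae. Random 12-aa peptides (tFT-X12 library) are fused to the C-terminus of a sfGFP-mCherry tandem fluorescent timer, after mCherry and a GGGS linker. Cells are FACS-sorted into 8 mCherry/sfGFP bins and deep-sequenced. The protein stability index (PSI) is the read-weighted bin average, scaled from 0 (unstable) to 1 (stable). Only peptides with >10 reads are reported; cells were grown at 30 °C in SC-His with glucose.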
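Further: PSI is a weighted mean of sequencing reads over stability bins, variants kept only with over 10 reads, mCherry proximal and sfGFP distal, peptide attached via GGGS linker.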

| Sequence | protein stability index |
| --- | --- |
| GVLACVEYSRMS | 0.683 ± 0.0084 |
| GVLARAYPTLWV | 0.68 ± 0.035 |
| GVLGCCGLAWRG | 0.697 ± 0.073 |
| GVLRVRLLAFGL | 0.65 ± 0.026 |
| GVLVGLGWGWGG | 0.7135 ± 0.0011 |
| GVNGFRIVCGGE | 0.674 ± 0.062 |
| GVNLFEIVRSVT | 0.7169 ± 0.0012 |
| GVNTKEEPNEFI | 0.698 ± 0.041 |
| GVPQEGHGLEGY | 0.7045 ± 0.00013 |
| GVPRMLVGAFRG | 0.684 ± 0.022 |
| GVQSSAPVKVRI | 0.6551 ± 0.0046 |
| GVRRPYRSDLRL | 0.678 ± 0.023 |
| GVRRVAVLYLLY | 0.527 ± 0.041 |
| GVSAKVRRETVR | 0.725 ± 0.078 |
| GVSCIAEGRGGV | 0.6693 ± 0.0045 |
| GVSGGFVGSSGG | 0.62 ± 0.024 |
| GVSTGSGASVAA | 0.659 ± 0.051 |
| GVVFGWAGYKGT | 0.677 ± 0.034 |
| GVVGDGGRLSGD | 0.667 ± 0.022 |
| GVVGTISLFVLD | 0.61 ± 0.018 |
| GVVPCVVGFICG | 0.687 ± 0.04 |
| GVVRLYYLRIGR | 0.652 ± 0.11 |
| GVVVLGRRMGAG | 0.6441 ± 0.0049 |
| GVVVRGGEWGLD | 0.675 ± 0.061 |
| GVWVMSGPVTRR | 0.716 ± 0.053 |

| Sequence | protein stability index |
| --- | --- |
| GWAVGVGGGRGR | 0.686 ± 0.017 |
| GWAWGVALGVRG | 0.54189 ± 0.00034 |
| GWFFFGCFECGG | 0.731 ± 0.024 |
| GWFRDCEWGASS | 0.712 ± 0.061 |
| GWFWGRGGRGRG | 0.657 ± 0.05 |
| GWGFVGGTVAAV | 0.705 ± 0.034 |
| GWGHYFGLIREQ | 0.698 ± 0.045 |
| GWGLCGRAAGVE | 0.692 ± 0.011 |
| GWGWDAVGVGGP | 0.711 ± 0.0074 |
| GWLCARGSSSRP | 0.649 ± 0.0067 |
| GWLGVRVCLAQR | 0.616 ± 0.0081 |
| GWLLGVGDEFRR | 0.734 ± 0.031 |
| GWRGDTSGGGWR | 0.655 ± 0.03 |
| GWRGRRGERARG | 0.749 ± 0.054 |
| GWRGVGVGGGVC | 0.689 ± 0.017 |
| GWSGWFSRVLRG | 0.726 ± 0.039 |
| GWTLIFGRTSEG | 0.678 ± 0.023 |
| GWVKWGVGIGRG | 0.734 ± 0.079 |
| GWWGGEGVEGEP | 0.6846 ± 0.0015 |
| GWWGGGGGAWSG | 0.697 ± 0.065 |
| GYGLGVEAEGLE | 0.715 ± 0.054 |
| GYGSSVYAVQKL | 0.608 ± 0.0096 |
| GYILSFPSVGGW | 0.724 ± 0.049 |
| GYLNWIDTRTSE | 0.79 ± 0.086 |
| GYNLTNVIPGVG | 0.681 ± 0.016 |

| Sequence | protein stability index |
| --- | --- |
| GYPIIIFYSAVQ | 0.529 ± 0.051 |
| GYPPDPSPPRLL | 0.724 ± 0.015 |
| GYRRELGVCSGD | 0.586 ± 0.08 |
| GYTSADHATALY | 0.755 ± 0.054 |
| GYWPWGLARVDV | 0.698 ± 0.017 |
| HACGGVFLSSVR | 0.693 ± 0.025 |
| HAGLLTSSHPGR | 0.705 ± 0.018 |
| HAISHRVFLHSP | 0.665 ± 0.025 |
| HALWRASVGQCG | 0.693 ± 0.068 |
| HAQTNSNSQLLL | 0.677 ± 0.0076 |
| HDDQIRASQNKL | 0.747 ± 0.026 |
| HDLVRECVGPVH | 0.602 ± 0.024 |
| HDVGEYVKKNRF | 0.653 ± 0.011 |
| HEGAISLCRQTC | 0.592 ± 0.058 |
| HEIRSQSFGLYV | 0.687 ± 0.025 |
| HETRGKTEQNWM | 0.645 ± 0.053 |
| HFAAVFATSISG | 0.675 ± 0.02 |
| HFCFKVFSVRAP | 0.627 ± 0.018 |
| HFPFYPSAPPPF | 0.713 ± 0.056 |
| HFPTTSITPIYC | 0.601 ± 0.019 |
| HFSDLIRFFFFA | 0.579 ± 0.064 |
| HGCRLCFISSWL | 0.663 ± 0.0057 |
| HGERMRKSPREE | 0.672 ± 0.11 |
| HGGSFSAFWYLL | 0.676 ± 0.027 |
| HGGTGDPAGIES | 0.694 ± 0.013 |

| Sequence | protein stability index |
| --- | --- |
| HGTRPFLAPMTP | 0.672 ± 0.0092 |
| HGVSERPSISEY | 0.6797 ± 0.0066 |
| HGVTPFFSSSPR | 0.632 ± 0.012 |
| HGVVGWKVNVGG | 0.695 ± 0.018 |
| HHIAYTALSVWS | 0.663 ± 0.011 |
| HHVDLHLSLPSP | 0.649 ± 0.032 |
| HILESKKAGPGD | 0.635 ± 0.053 |
| HILSPPPRPPLV | 0.719 ± 0.02 |
| HIPAFLSRFIHG | 0.685 ± 0.038 |
| HISACKFPARTA | 0.692 ± 0.057 |
| HKGRVRACVFGV | 0.666 ± 0.017 |
| HKKRPKIRSNEY | 0.622 ± 0.026 |
| HKLYATANHSPM | 0.672 ± 0.1 |
| HLFNLVRIRTDL | 0.703 ± 0.049 |
| HLGTLYSSPLYR | 0.66289 ± 0.00054 |
| HLHAPSPPTLTL | 0.682 ± 0.013 |
| HLIQPDPRASNN | 0.751 ± 0.098 |
| HLKRFLQVHARL | 0.82 ± 0.075 |
| HLLRSDPAWFSG | 0.705 ± 0.009 |
| HLPPPPTLPPFP | 0.6905 ± 0.0068 |
| HLSDAGSPDGAN | 0.628 ± 0.063 |
| HLSLFHIALPPP | 0.6888 ± 0.0053 |
| HLTIVNYIWEIL | 0.549 ± 0.0059 |
| HLVYRRGLEVTF | 0.615 ± 0.061 |
| HMLRLIDFQSIV | 0.685 ± 0.042 |

| Sequence | protein stability index |
| --- | --- |
| HPAPGSPPAAHL | 0.734 ± 0.073 |
| HPASPPTPPPLP | 0.663 ± 0.014 |
| HPFARSLRSQIT | 0.734 ± 0.043 |
| HPGVPGSPFLSC | 0.714 ± 0.041 |
| HPHAIDPKIESI | 0.693 ± 0.035 |
| HPMVFRLAAPRL | 0.779 ± 0.18 |
| HPPHFPTPFFSP | 0.702 ± 0.036 |
| HPPLRPPLGSRF | 0.868 ± 0.045 |
| HPPLTPLRANLP | 0.74 ± 0.039 |
| HPPRVLHGVPSG | 0.629 ± 0.075 |
| HPPSSLLSPPSP | 0.702 ± 0.042 |
| HPRSAYSLAASL | 0.6633 ± 0.00083 |
| HPSAALLSSCYK | 0.677 ± 0.047 |
| HPSPFTPPTNPY | 0.733 ± 0.06 |
| HPSPPAPAPLYP | 0.667 ± 0.11 |
| HPSRPPRASPPS | 0.693 ± 0.03 |
| HPVSVKPSESSR | 0.668 ± 0.073 |
| HQRGGPLPSSRR | 0.739 ± 0.12 |
| HQSISLSGAMLT | 0.65 ± 0.0088 |
| HQVPSPPPPGPL | 0.707 ± 0.2 |
| HQYSRHASIRTL | 0.623 ± 0.06 |
| HRCRVGGSRFEK | 0.671 ± 0.036 |
| HRLGNRGGRTLG | 0.6512 ± 0.0057 |
| HRPPATFPVAHP | 0.735 ± 0.042 |
| HRPPATPADPCS | 0.684 ± 0.019 |

| Sequence | protein stability index |
| --- | --- |
| HRPSPSPSPPLP | 0.752 ± 0.056 |
| HRPTRLIKKNLA | 0.732 ± 0.033 |
| HRRMGVGGCLEE | 0.682 ± 0.046 |
| HRVPRLRGQNPP | 0.635 ± 0.0073 |
| HRVVGVTLSVPS | 0.71 ± 0.071 |
| HSALLRSASLSF | 0.705 ± 0.022 |
| HSAPDLPPLPRV | 0.711 ± 0.02 |
| HSCSRPLTPPPF | 0.72 ± 0.028 |
| HSGGRVYSYACI | 0.6851 ± 0.0017 |
| HSIPWTRTRPGC | 0.687 ± 0.016 |
| HSLLPSYPFLSP | 0.715 ± 0.076 |
| HSPHLLSFFSPM | 0.71 ± 0.076 |
| HSPSSLPRLRPQ | 0.621 ± 0.044 |
| HSRPPPSPPDPA | 0.603 ± 0.033 |
| HSRTLTQKKTNN | 0.715 ± 0.038 |
| HSSHPRPHRTLI | 0.661 ± 0.012 |
| HSWSLLFSPSFP | 0.658 ± 0.082 |
| HTAYPPPHRTPP | 0.629 ± 0.11 |
| HTEYQGAGIPDE | 0.752 ± 0.037 |
| HTFSRLHSLPIR | 0.693 ± 0.0082 |
| HTNKNTTIQNKK | 0.702 ± 0.11 |
| HTRPTALLPLSR | 0.701 ± 0.014 |
| HTSKFKKQRKKR | 0.7975 ± 0.0022 |
| HTWALERVCSLD | 0.687 ± 0.066 |
| HTYQAAFRSHAI | 0.6544 ± 0.00072 |

| Sequence | protein stability index |
| --- | --- |
| HVKLLSSNGPLV | 0.671 ± 0.031 |
| HVLRVWKMCVLE | 0.586 ± 0.033 |
| HVTFPLRRTFRR | 0.697 ± 0.013 |
| HWRRGGRRGGDR | 0.703 ± 0.1 |
| HYPGSGAVEQHE | 0.599 ± 0.016 |
| HYSPLPSLPPLP | 0.684 ± 0.077 |
| IADRLAAIPMRY | 0.669 ± 0.011 |
| IARTGLGIIIKI | 0.663 ± 0.054 |
| IASSRPHSNQRE | 0.692 ± 0.021 |
| ICRGLTVPGVAI | 0.612 ± 0.0095 |
| ICWSTALDASFG | 0.725 ± 0.024 |
| IDLLTRKVDLFN | 0.66 ± 0.055 |
| IDLTLLRHPAYL | 0.732 ± 0.05 |
| IDSWWLPSDLKV | 0.835 ± 0.017 |
| IDVLTGTDAGPT | 0.6278 ± 0.004 |
| IECACVPLVAGG | 0.656 ± 0.024 |
| IECLRVVRSRCG | 0.6724 ± 0.0023 |
| IEKKNKTKKKRI | 0.748 ± 0.13 |
| IERGLEGHLGHC | 0.668 ± 0.035 |
| IESRGCSMQKRL | 0.7489 ± 0.0039 |
| IESVGRTTRQGE | 0.748 ± 0.11 |
| IFRERWGCFEAI | 0.763 ± 0.13 |
| IFRLFAFHENRG | 0.679 ± 0.051 |
| IFSIRCFHSDFV | 0.6486 ± 0.0028 |
| IFVCRCFGFFGG | 0.681 ± 0.04 |

| Sequence | protein stability index |
| --- | --- |
| IGAHTRRRVNGA | 0.675 ± 0.096 |
| IGCCSGYGGERG | 0.691 ± 0.018 |
| IGGIIFICTSNK | 0.555 ± 0.015 |
| IGGVSHEMKAKR | 0.619 ± 0.013 |
| IGLISTQYYWSL | 0.621 ± 0.043 |
| IGPRGPFHLTRI | 0.675 ± 0.037 |
| IGSEGGKNGRRK | 0.616 ± 0.044 |
| IGVGVGIDGLPW | 0.693 ± 0.093 |
| IHCFSVDLLVAR | 0.542 ± 0.018 |
| IHLTRGGNGHMD | 0.6 ± 0.04 |
| IHPKREPRDNNI | 0.679 ± 0.015 |
| IHVKKNQACSLF | 0.646 ± 0.024 |
| IIDKQENNLKSE | 0.7513 ± 0.0011 |
| IIKPPDIQQSRQ | 0.739 ± 0.026 |
| IIKRKKLMEKRT | 0.663 ± 0.013 |
| IINKRKKKKDKG | 0.644 ± 0.019 |
| IISAIAPFIRWD | 0.69 ± 0.03 |
| IKGHLYDFPPGT | 0.792 ± 0.1 |
| IKHKSKKNNCKK | 0.744 ± 0.052 |
| IKIIKNDQKRIK | 0.709 ± 0.061 |
| IKKITKTKPNHN | 0.673 ± 0.053 |
